Measurements taken from article PMC6652007, “Metabolic engineering of Clostridium thermocellum for n-butanol production from cellulose” (Biotechnology for Biofuels, 2019).

Legend:
[1] = test system: CC(O)CC(=O)SCCNC(=O)CCNC(=O)[C@H](O)C(C)(C)COP(=O)(O)OP(=O)(O)OC[C@H]1O[C@@H](n2cnc3c(N)ncnc32)[C@H](O)[C@@H]1OP(=O)(O)O; experiment: purified protein; details: 0.3 mM NADH, coupled with Ter, 100 mM MOPS-KOH pH 7.5, 55 °C
[2] = test system: T1, NC(=O)C1=CN([C@@H]2O[C@H](COP(=O)(O)OP(=O)(O)OC[C@H]3O[C@@H](n4cnc5c(N)ncnc54)[C@H](O)[C@@H]3O)[C@@H](O)[C@H]2O)C=CC1; experiment: NAD(P)H oxidation, A340; type: biochemical, Thermoanaerobacterium thermosaccharolyticum; details: acetoacetyl-CoA as substrate, 100 mM MOPS-KOH pH 7.5, 55 °C, varied: cofactor
T1 construct: His-tagged (vector pD861-CH), codon-optimised, expressed in E. coli BL21(DE3)
Excerpt: (§1) NAD(P)H oxidation, A340 on Tt_Hbd

[3] = test system: T2, NC(=O)C1=CN([C@@H]2O[C@H](COP(=O)(O)OP(=O)(O)OC[C@H]3O[C@@H](n4cnc5c(N)ncnc54)[C@H](OP(=O)(O)O)[C@@H]3O)[C@@H](O)[C@H]2O)C=CC1; experiment: NAD(P)H oxidation, A340; type: biochemical, Thermoanaerobacterium thermosaccharolyticum; details: acetoacetyl-CoA as substrate, 100 mM MOPS-KOH pH 7.5, 55 °C, varied: cofactor
T2 construct: His-tagged (vector pD861-CH), codon-optimised, expressed in E. coli BL21(DE3)
Excerpt: as §1

[4] = test system: T3, CC(=O)CC(=O)SCCNC(=O)CCNC(=O)[C@H](O)C(C)(C)COP(=O)(O)OP(=O)(O)OC[C@H]1O[C@@H](n2cnc3c(N)ncnc32)[C@H](O)[C@@H]1OP(=O)(O)O; experiment: NADH oxidation, A340; type: biochemical, Thermoanaerobacterium thermosaccharolyticum; details: 0.3 mM NADH, 100 mM MOPS-KOH pH 7.5, 55 °C
T3 construct: His-tagged (vector pD861-CH), codon-optimised, expressed in E. coli BL21(DE3)
Excerpt: NADH oxidation, A340 on Tt_Hbd

Sequence of Tt_Hbd (Thermoanaerobacterium thermosaccharolyticum DSM 571) (chain, as listed by the source): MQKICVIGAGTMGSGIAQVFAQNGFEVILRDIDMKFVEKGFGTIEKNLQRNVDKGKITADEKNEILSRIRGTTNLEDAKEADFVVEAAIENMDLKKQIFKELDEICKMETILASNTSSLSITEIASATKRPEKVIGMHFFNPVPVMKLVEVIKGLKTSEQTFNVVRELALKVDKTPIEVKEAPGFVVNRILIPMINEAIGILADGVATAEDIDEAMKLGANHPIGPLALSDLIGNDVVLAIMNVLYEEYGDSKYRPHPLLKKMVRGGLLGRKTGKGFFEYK
Sequence of Tt_Hbd (Thermoanaerobacterium thermosaccharolyticum DSM 571; D31A) (chain, as listed by the source D31A): as the sequence (chain, as listed by the source) above, with D31A counted along it

Row | Substance | Km [1] [µM] | Km [2] [µM] | Vmax [2] [µmol/min/mg] | Km [3] [µM] | Vmax [3] [µmol/min/mg] | Km [4] [µM]
1 | Tt_Crt (Thermoanaerobacterium thermosaccharolyticum DSM 571) | 600 ± 100 |  |  |  |  | 
2 | Tt_Hbd (Thermoanaerobacterium thermosaccharolyticum DSM 571) |  | 50 ± 20 | 61.4 | 1100 ± 200 | 15.2 | 30 ± 10
3 | Tt_Hbd (Thermoanaerobacterium thermosaccharolyticum DSM 571; D31A) |  | 60 ± 20 | 38.5 | 30 ± 10 | 485 | 
